Experimental data as given in the supplement of paper PMC5998384.

Key:
[1] = system: HeLa Kyoto; experiment: solubility in G1/S (NP-40 vs SDS abundance) (log2 ratio); higher = more soluble; conditions: cell cycle stage: G1/S
[2] = system: HeLa Kyoto; experiment: solubility change mitosis vs G1/S (difference of NP-40 vs SDS log2 ratios) (log2 ratio difference); higher = more soluble in mitosis
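Wherever solubility change mitosis vs G1/S (difference of NP-40 vs SDS log2 ratios) is given: synchronized HeLa Kyoto cells (double thymidine block for G1/S, nocodazole release for mitosis), protein amounts in NP-40 versus SDS lysates quantified by mass spectrometry, three biological replicates.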
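Wherever solubility in G1/S (NP-40 vs SDS abundance) is given: HeLa Kyoto cells arrested at G1/S by double thymidine block, proteins quantified by TMT10plex mass spectrometry in mild NP-40 versus SDS extracts, three biological replicates.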

Sequence of TFAP2C (chain, as listed by the source): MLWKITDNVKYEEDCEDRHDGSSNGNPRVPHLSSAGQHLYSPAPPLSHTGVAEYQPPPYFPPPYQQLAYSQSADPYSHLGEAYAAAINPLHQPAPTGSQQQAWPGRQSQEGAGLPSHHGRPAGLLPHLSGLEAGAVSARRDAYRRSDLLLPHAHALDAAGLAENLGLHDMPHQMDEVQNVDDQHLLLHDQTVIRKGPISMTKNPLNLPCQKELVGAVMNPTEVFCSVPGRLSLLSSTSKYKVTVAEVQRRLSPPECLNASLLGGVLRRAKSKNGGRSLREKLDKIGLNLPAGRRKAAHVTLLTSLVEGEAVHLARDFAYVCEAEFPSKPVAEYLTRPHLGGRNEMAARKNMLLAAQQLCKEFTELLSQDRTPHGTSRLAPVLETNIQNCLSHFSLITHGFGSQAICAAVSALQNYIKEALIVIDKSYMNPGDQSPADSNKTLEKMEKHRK
Sequence of NCOA2 (chain, as listed by the source): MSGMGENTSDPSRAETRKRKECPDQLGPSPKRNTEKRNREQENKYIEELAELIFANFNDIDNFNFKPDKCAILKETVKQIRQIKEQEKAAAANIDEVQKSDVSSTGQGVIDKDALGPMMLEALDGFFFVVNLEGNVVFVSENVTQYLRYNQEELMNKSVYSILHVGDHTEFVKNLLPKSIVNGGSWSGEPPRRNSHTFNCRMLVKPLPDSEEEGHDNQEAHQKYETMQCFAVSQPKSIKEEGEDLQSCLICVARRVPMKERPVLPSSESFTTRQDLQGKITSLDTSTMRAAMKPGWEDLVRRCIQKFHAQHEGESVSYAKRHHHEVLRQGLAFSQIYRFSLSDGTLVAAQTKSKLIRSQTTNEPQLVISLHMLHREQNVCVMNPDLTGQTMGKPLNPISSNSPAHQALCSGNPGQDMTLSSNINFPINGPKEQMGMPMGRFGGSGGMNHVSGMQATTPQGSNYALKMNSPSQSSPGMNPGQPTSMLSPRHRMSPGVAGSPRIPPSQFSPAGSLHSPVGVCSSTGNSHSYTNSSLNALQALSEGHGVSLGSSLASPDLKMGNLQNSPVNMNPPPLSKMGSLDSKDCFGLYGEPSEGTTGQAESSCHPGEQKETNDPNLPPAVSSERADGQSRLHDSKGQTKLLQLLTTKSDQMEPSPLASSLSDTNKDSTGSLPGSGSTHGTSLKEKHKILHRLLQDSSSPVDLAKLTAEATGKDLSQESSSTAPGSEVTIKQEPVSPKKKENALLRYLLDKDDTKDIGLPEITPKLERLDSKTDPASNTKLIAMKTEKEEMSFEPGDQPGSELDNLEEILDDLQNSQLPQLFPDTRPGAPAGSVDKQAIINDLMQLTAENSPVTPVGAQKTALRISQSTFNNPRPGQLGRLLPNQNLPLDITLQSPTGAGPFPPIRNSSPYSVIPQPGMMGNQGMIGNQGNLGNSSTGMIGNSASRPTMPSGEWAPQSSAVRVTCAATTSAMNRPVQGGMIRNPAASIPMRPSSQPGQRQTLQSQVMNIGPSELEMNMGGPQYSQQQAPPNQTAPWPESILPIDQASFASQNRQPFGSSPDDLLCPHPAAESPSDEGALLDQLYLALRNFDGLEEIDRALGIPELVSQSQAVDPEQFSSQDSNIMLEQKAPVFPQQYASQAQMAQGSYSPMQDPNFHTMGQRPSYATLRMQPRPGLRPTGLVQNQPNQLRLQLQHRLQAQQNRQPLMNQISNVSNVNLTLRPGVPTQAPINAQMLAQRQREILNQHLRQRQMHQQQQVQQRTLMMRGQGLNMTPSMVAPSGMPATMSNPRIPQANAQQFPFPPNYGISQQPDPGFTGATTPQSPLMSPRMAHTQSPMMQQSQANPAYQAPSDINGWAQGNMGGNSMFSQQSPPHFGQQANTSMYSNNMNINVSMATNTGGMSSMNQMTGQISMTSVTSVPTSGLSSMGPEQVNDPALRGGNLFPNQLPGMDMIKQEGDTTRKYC
Sequence of TAF5L (chain, as listed by the source): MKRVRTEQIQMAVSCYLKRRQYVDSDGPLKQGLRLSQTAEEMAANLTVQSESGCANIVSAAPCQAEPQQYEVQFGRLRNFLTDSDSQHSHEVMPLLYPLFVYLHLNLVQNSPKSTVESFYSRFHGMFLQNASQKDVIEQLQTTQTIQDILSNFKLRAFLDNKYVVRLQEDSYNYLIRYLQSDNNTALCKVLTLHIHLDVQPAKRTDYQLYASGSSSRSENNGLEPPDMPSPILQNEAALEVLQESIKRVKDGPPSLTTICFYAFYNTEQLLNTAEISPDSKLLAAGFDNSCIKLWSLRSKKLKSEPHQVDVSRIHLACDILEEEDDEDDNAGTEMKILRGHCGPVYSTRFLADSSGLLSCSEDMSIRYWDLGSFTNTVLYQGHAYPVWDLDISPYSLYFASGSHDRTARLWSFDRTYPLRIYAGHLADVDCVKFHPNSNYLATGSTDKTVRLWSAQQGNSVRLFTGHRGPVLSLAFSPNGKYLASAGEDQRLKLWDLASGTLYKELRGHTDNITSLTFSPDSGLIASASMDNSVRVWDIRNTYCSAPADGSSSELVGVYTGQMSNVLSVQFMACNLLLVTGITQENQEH
Sequence of POLR3K (chain, as listed by the source): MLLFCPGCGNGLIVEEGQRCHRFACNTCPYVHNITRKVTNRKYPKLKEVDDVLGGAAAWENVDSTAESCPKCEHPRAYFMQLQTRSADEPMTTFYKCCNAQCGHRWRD
Sequence of PEX16 (chain, as listed by the source): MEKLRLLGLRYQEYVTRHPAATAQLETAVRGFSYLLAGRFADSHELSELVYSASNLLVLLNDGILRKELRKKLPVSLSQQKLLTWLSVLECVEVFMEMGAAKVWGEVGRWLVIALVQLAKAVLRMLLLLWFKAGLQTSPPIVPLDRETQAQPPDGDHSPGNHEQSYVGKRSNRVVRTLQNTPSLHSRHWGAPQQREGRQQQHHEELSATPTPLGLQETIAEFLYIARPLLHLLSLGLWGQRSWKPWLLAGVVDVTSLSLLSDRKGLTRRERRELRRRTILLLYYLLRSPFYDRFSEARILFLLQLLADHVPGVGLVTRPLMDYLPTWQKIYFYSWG

Substance: NAV2
- solubility in G1/S (log2) [1]: -0.147
- solubility change mitosis (log2) [2]: 0.109

Substance: NBEAL1
- solubility in G1/S (log2) [1]: -0.894
- solubility change mitosis (log2) [2]: -0.118

Substance: NCOA2
- solubility in G1/S (log2) [1]: 0.178
- solubility change mitosis (log2) [2]: -0.129

Substance: NES
- solubility in G1/S (log2) [1]: -1.35
- solubility change mitosis (log2) [2]: 0.912

Substance: NSA2
- solubility in G1/S (log2) [1]: -2.43
- solubility change mitosis (log2) [2]: 1.41

Substance: OBSL1
- solubility in G1/S (log2) [1]: -0.276
- solubility change mitosis (log2) [2]: -0.0157

Substance: PDCD11
- solubility in G1/S (log2) [1]: -2.88
- solubility change mitosis (log2) [2]: 1.53

Substance: PEX16
- solubility in G1/S (log2) [1]: -0.248
- solubility change mitosis (log2) [2]: -0.0414

Substance: POLR3K
- solubility in G1/S (log2) [1]: 0.354
- solubility change mitosis (log2) [2]: 0.031

Substance: PRR14L
- solubility in G1/S (log2) [1]: -0.0161
- solubility change mitosis (log2) [2]: 0.0491

Substance: RIMS1
- solubility in G1/S (log2) [1]: 0.0741
- solubility change mitosis (log2) [2]: 0.0888

Substance: SHPRH
- solubility in G1/S (log2) [1]: -0.418
- solubility change mitosis (log2) [2]: 0.00438

Substance: SLC7A6
- solubility in G1/S (log2) [1]: -0.00617
- solubility change mitosis (log2) [2]: -0.122

Substance: SMG6
- solubility in G1/S (log2) [1]: -0.859
- solubility change mitosis (log2) [2]: 0.113

Substance: SZT2
- solubility in G1/S (log2) [1]: -0.476
- solubility change mitosis (log2) [2]: 0.317

Substance: TAF5L
- solubility in G1/S (log2) [1]: -0.145
- solubility change mitosis (log2) [2]: -0.0612

Substance: TFAP2C
- solubility in G1/S (log2) [1]: -0.0214
- solubility change mitosis (log2) [2]: 0.119

Substance: TNRC18
- solubility in G1/S (log2) [1]: 0.0268
- solubility change mitosis (log2) [2]: -0.234

Substance: TTC28
- solubility in G1/S (log2) [1]: 0.0118
- solubility change mitosis (log2) [2]: -0.133

Substance: ZFYVE26
- solubility in G1/S (log2) [1]: 0.0351
- solubility change mitosis (log2) [2]: -0.0176

Substance: ZNF106
- solubility in G1/S (log2) [1]: -1.19
- solubility change mitosis (log2) [2]: 0.915
